Test results as given in US20210139548A1 (published 2021).
One block for each binder: values may come before it. *1 amine or outer side, *2 acyl side, *3 side chain or, on linkers, in order; H or OH if unused. Side-chain parts run from the residue outwards. The star is where a group is joined. C18 diacid = O=C(O)CCCCCCCCCCCCCCCCC(=O)*; γGlu = O=C(O)[C@H](CCC(=O)[*:2])N[*:1]; Isovaleryl = CC(C)CC(=O)*; AEEA = NCCOCCOCC(=O)O

Molecular target: T1, human neuropeptide Y2 receptor (human, UniProt P49146 1-381)
T1 construct: whole, on cells; also called hNPY2 receptor; hNPY2-R
T1 sequence (looked up): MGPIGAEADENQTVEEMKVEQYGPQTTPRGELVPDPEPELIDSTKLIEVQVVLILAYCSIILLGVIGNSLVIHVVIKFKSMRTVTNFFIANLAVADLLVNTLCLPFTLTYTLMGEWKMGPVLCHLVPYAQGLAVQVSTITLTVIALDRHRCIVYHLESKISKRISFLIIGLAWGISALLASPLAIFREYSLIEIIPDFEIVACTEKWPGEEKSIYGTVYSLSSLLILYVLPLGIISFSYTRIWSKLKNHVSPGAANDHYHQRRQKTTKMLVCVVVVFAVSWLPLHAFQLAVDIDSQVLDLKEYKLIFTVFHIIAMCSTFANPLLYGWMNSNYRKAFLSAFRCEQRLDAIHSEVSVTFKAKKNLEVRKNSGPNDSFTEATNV
Assay: radioligand competition (125I-PYY(1-36)), hNPY2R membranes
Outline: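 Commercial human Y2 receptor membranes (0.5 μg protein/well) were incubated with peptide for 2 h at room temperature in 50 mM HEPES, 5 mM MgCl₂, 1 mM CaCl₂, pH 7.4, with 0.2% ovalbumin. Bound radioligand was separated on PEI-soaked GF/C filters and counted by scintillation, and IC₅₀ came from nonlinear sigmoidal regression.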

- Ki: 0.96 nM
B2: Compound 163 (peptide)
peptide: Isovaleryl-APEK([AEEA-AEEA-γGlu-C18 diacid])PEEAASPEELQRYYVALRHYYNWLTRQRY-NH2
SMILES: CC(C)CC(=O)N[C@@H](C)C(=O)N1CCC[C@H]1C(=O)N[C@@H](CCC(=O)O)C(=O)N[C@@H](CCCCNC(=O)COCCOCCNC(=O)COCCOCCNC(=O)CC[C@H](NC(=O)CCCCCCCCCCCCCCCCC(=O)O)C(=O)O)C(=O)N1CCC[C@H]1C(=O)N[C@@H](CCC(=O)O)C(=O)N[C@@H](CCC(=O)O)C(=O)N[C@@H](C)C(=O)N[C@@H](C)C(=O)N[C@@H](CO)C(=O)N1CCC[C@H]1C(=O)N[C@@H](CCC(=O)O)C(=O)N[C@@H](CCC(=O)O)C(=O)N[C@@H](CC(C)C)C(=O)N[C@@H](CCC(N)=O)C(=O)N[C@@H](CCCNC(=N)N)C(=O)N[C@@H](Cc1ccc(O)cc1)C(=O)N[C@@H](Cc1ccc(O)cc1)C(=O)N[C@H](C(=O)N[C@@H](C)C(=O)N[C@@H](CC(C)C)C(=O)N[C@@H](CCCNC(=N)N)C(=O)N[C@@H](Cc1c[nH]cn1)C(=O)N[C@@H](Cc1ccc(O)cc1)C(=O)N[C@@H](Cc1ccc(O)cc1)C(=O)N[C@@H](CC(N)=O)C(=O)N[C@@H](Cc1c[nH]c2ccccc12)C(=O)N[C@@H](CC(C)C)C(=O)N[C@H](C(=O)N[C@@H](CCCNC(=N)N)C(=O)N[C@@H](CCC(N)=O)C(=O)N[C@@H](CCCNC(=N)N)C(=O)N[C@@H](Cc1ccc(O)cc1)C(N)=O)[C@@H](C)O)C(C)C

- Ki: 2.49 nM
B6: Compound 165 (peptide)
peptide: Isovaleryl-APEK([AEEA-AEEA-γGlu-C18 diacid])PEEDASPEELQRYQVSLRHYYNWLTRQRY-NH2
SMILES: CC(C)CC(=O)N[C@@H](C)C(=O)N1CCC[C@H]1C(=O)N[C@@H](CCC(=O)O)C(=O)N[C@@H](CCCCNC(=O)COCCOCCNC(=O)COCCOCCNC(=O)CC[C@H](NC(=O)CCCCCCCCCCCCCCCCC(=O)O)C(=O)O)C(=O)N1CCC[C@H]1C(=O)N[C@@H](CCC(=O)O)C(=O)N[C@@H](CCC(=O)O)C(=O)N[C@@H](CC(=O)O)C(=O)N[C@@H](C)C(=O)N[C@@H](CO)C(=O)N1CCC[C@H]1C(=O)N[C@@H](CCC(=O)O)C(=O)N[C@@H](CCC(=O)O)C(=O)N[C@@H](CC(C)C)C(=O)N[C@@H](CCC(N)=O)C(=O)N[C@@H](CCCNC(=N)N)C(=O)N[C@@H](Cc1ccc(O)cc1)C(=O)N[C@@H](CCC(N)=O)C(=O)N[C@H](C(=O)N[C@@H](CO)C(=O)N[C@@H](CC(C)C)C(=O)N[C@@H](CCCNC(=N)N)C(=O)N[C@@H](Cc1c[nH]cn1)C(=O)N[C@@H](Cc1ccc(O)cc1)C(=O)N[C@@H](Cc1ccc(O)cc1)C(=O)N[C@@H](CC(N)=O)C(=O)N[C@@H](Cc1c[nH]c2ccccc12)C(=O)N[C@@H](CC(C)C)C(=O)N[C@H](C(=O)N[C@@H](CCCNC(=N)N)C(=O)N[C@@H](CCC(N)=O)C(=O)N[C@@H](CCCNC(=N)N)C(=O)N[C@@H](Cc1ccc(O)cc1)C(N)=O)[C@@H](C)O)C(C)C

More lines, now with the values behind:

B1: Compound 153 (peptide)
peptide: Isovaleryl-APEK([AEEA-AEEA-γGlu-C18 diacid])VEEEASPEELQRYYVSLRHYYNWLTRQRY-NH2
SMILES: CC(C)CC(=O)N[C@@H](C)C(=O)N1CCC[C@H]1C(=O)N[C@@H](CCC(=O)O)C(=O)N[C@@H](CCCCNC(=O)COCCOCCNC(=O)COCCOCCNC(=O)CC[C@H](NC(=O)CCCCCCCCCCCCCCCCC(=O)O)C(=O)O)C(=O)N[C@H](C(=O)N[C@@H](CCC(=O)O)C(=O)N[C@@H](CCC(=O)O)C(=O)N[C@@H](CCC(=O)O)C(=O)N[C@@H](C)C(=O)N[C@@H](CO)C(=O)N1CCC[C@H]1C(=O)N[C@@H](CCC(=O)O)C(=O)N[C@@H](CCC(=O)O)C(=O)N[C@@H](CC(C)C)C(=O)N[C@@H](CCC(N)=O)C(=O)N[C@@H](CCCNC(=N)N)C(=O)N[C@@H](Cc1ccc(O)cc1)C(=O)N[C@@H](Cc1ccc(O)cc1)C(=O)N[C@H](C(=O)N[C@@H](CO)C(=O)N[C@@H](CC(C)C)C(=O)N[C@@H](CCCNC(=N)N)C(=O)N[C@@H](Cc1c[nH]cn1)C(=O)N[C@@H](Cc1ccc(O)cc1)C(=O)N[C@@H](Cc1ccc(O)cc1)C(=O)N[C@@H](CC(N)=O)C(=O)N[C@@H](Cc1c[nH]c2ccccc12)C(=O)N[C@@H](CC(C)C)C(=O)N[C@H](C(=O)N[C@@H](CCCNC(=N)N)C(=O)N[C@@H](CCC(N)=O)C(=O)N[C@@H](CCCNC(=N)N)C(=O)N[C@@H](Cc1ccc(O)cc1)C(N)=O)[C@@H](C)O)C(C)C)C(C)C
- Ki: 14.4 nM

B3: Compound 155 (peptide)
peptide: Isovaleryl-APEK([AEEA-AEEA-γGlu-C18 diacid])PEEDASPEETQRYYVSLRHYYNWLTRQRY-NH2
SMILES: CC(C)CC(=O)N[C@@H](C)C(=O)N1CCC[C@H]1C(=O)N[C@@H](CCC(=O)O)C(=O)N[C@@H](CCCCNC(=O)COCCOCCNC(=O)COCCOCCNC(=O)CC[C@H](NC(=O)CCCCCCCCCCCCCCCCC(=O)O)C(=O)O)C(=O)N1CCC[C@H]1C(=O)N[C@@H](CCC(=O)O)C(=O)N[C@@H](CCC(=O)O)C(=O)N[C@@H](CC(=O)O)C(=O)N[C@@H](C)C(=O)N[C@@H](CO)C(=O)N1CCC[C@H]1C(=O)N[C@@H](CCC(=O)O)C(=O)N[C@@H](CCC(=O)O)C(=O)N[C@H](C(=O)N[C@@H](CCC(N)=O)C(=O)N[C@@H](CCCNC(=N)N)C(=O)N[C@@H](Cc1ccc(O)cc1)C(=O)N[C@@H](Cc1ccc(O)cc1)C(=O)N[C@H](C(=O)N[C@@H](CO)C(=O)N[C@@H](CC(C)C)C(=O)N[C@@H](CCCNC(=N)N)C(=O)N[C@@H](Cc1c[nH]cn1)C(=O)N[C@@H](Cc1ccc(O)cc1)C(=O)N[C@@H](Cc1ccc(O)cc1)C(=O)N[C@@H](CC(N)=O)C(=O)N[C@@H](Cc1c[nH]c2ccccc12)C(=O)N[C@@H](CC(C)C)C(=O)N[C@H](C(=O)N[C@@H](CCCNC(=N)N)C(=O)N[C@@H](CCC(N)=O)C(=O)N[C@@H](CCCNC(=N)N)C(=O)N[C@@H](Cc1ccc(O)cc1)C(N)=O)[C@@H](C)O)C(C)C)[C@@H](C)O
- Ki: 2.05 nM

B4: Compound 160 (peptide)
peptide: Isovaleryl-APEK([AEEA-AEEA-γGlu-C18 diacid])PEADAEPEELQRYYTSLRHYYNWLTRQRY-NH2
SMILES: CC(C)CC(=O)N[C@@H](C)C(=O)N1CCC[C@H]1C(=O)N[C@@H](CCC(=O)O)C(=O)N[C@@H](CCCCNC(=O)COCCOCCNC(=O)COCCOCCNC(=O)CC[C@H](NC(=O)CCCCCCCCCCCCCCCCC(=O)O)C(=O)O)C(=O)N1CCC[C@H]1C(=O)N[C@@H](CCC(=O)O)C(=O)N[C@@H](C)C(=O)N[C@@H](CC(=O)O)C(=O)N[C@@H](C)C(=O)N[C@@H](CCC(=O)O)C(=O)N1CCC[C@H]1C(=O)N[C@@H](CCC(=O)O)C(=O)N[C@@H](CCC(=O)O)C(=O)N[C@@H](CC(C)C)C(=O)N[C@@H](CCC(N)=O)C(=O)N[C@@H](CCCNC(=N)N)C(=O)N[C@@H](Cc1ccc(O)cc1)C(=O)N[C@@H](Cc1ccc(O)cc1)C(=O)N[C@H](C(=O)N[C@@H](CO)C(=O)N[C@@H](CC(C)C)C(=O)N[C@@H](CCCNC(=N)N)C(=O)N[C@@H](Cc1c[nH]cn1)C(=O)N[C@@H](Cc1ccc(O)cc1)C(=O)N[C@@H](Cc1ccc(O)cc1)C(=O)N[C@@H](CC(N)=O)C(=O)N[C@@H](Cc1c[nH]c2ccccc12)C(=O)N[C@@H](CC(C)C)C(=O)N[C@H](C(=O)N[C@@H](CCCNC(=N)N)C(=O)N[C@@H](CCC(N)=O)C(=O)N[C@@H](CCCNC(=N)N)C(=O)N[C@@H](Cc1ccc(O)cc1)C(N)=O)[C@@H](C)O)[C@@H](C)O
- Ki: 2 nM

B5: Compound 158 (peptide)
peptide: Isovaleryl-APEK([AEEA-AEEA-γGlu-C18 diacid])PEEDASPEELQRYYVSLRHYWNYLTRQRY-NH2
SMILES: CC(C)CC(=O)N[C@@H](C)C(=O)N1CCC[C@H]1C(=O)N[C@@H](CCC(=O)O)C(=O)N[C@@H](CCCCNC(=O)COCCOCCNC(=O)COCCOCCNC(=O)CC[C@H](NC(=O)CCCCCCCCCCCCCCCCC(=O)O)C(=O)O)C(=O)N1CCC[C@H]1C(=O)N[C@@H](CCC(=O)O)C(=O)N[C@@H](CCC(=O)O)C(=O)N[C@@H](CC(=O)O)C(=O)N[C@@H](C)C(=O)N[C@@H](CO)C(=O)N1CCC[C@H]1C(=O)N[C@@H](CCC(=O)O)C(=O)N[C@@H](CCC(=O)O)C(=O)N[C@@H](CC(C)C)C(=O)N[C@@H](CCC(N)=O)C(=O)N[C@@H](CCCNC(=N)N)C(=O)N[C@@H](Cc1ccc(O)cc1)C(=O)N[C@@H](Cc1ccc(O)cc1)C(=O)N[C@H](C(=O)N[C@@H](CO)C(=O)N[C@@H](CC(C)C)C(=O)N[C@@H](CCCNC(=N)N)C(=O)N[C@@H](Cc1c[nH]cn1)C(=O)N[C@@H](Cc1ccc(O)cc1)C(=O)N[C@@H](Cc1c[nH]c2ccccc12)C(=O)N[C@@H](CC(N)=O)C(=O)N[C@@H](Cc1ccc(O)cc1)C(=O)N[C@@H](CC(C)C)C(=O)N[C@H](C(=O)N[C@@H](CCCNC(=N)N)C(=O)N[C@@H](CCC(N)=O)C(=O)N[C@@H](CCCNC(=N)N)C(=O)N[C@@H](Cc1ccc(O)cc1)C(N)=O)[C@@H](C)O)C(C)C
- Ki: 4.43 nM
